Legend:
Assay in all cases: cell_activity; A16>G editing, HEK293FT
Settings in all cases: tags: SV40 NLS, 3xFLAG, nucleoplasmin NLS
APG08449-nAPG07433.1 = APG08449-nAPG07433.1 (synthetic)
Procedure: (§1) 500 ng of plasmid comprising an expression cassette comprising a coding sequence for a fusion protein for each deaminase described in Table 1 and 500 ng of plasmid comprising an expression cassette encoding an sgRNA shown in Table 2 were co-transfected into HEK293FT cells at 75-90% confluency in 24-well plates using Lipofectamine 2000 reagent (Life Technologies). Cells were then incubated at 37° C. for 72 h. Following incubation, genomic DNA was then extracted using NucleoSpin 96 Tissue (Macherey-Nagel) following the manufacturer's protocol. The genomic region flanking the targeted genomic site was PCR amplified using the primers in Table 2 and products were purified using ZR-96 DNA Clean and Concentrator (Zymo Research) following the manufacturer's protocol. The purified PCR products underwent Next Generation Sequencing on Illumina MiSeq. Typically, 100,000 of 250 bp paired-end reads (2×100,000 reads) are generated per amplicon. The reads were analyzed using CRISPResso (Pinello, et al. 2016 Nature Biotech, 34:695-697) to calculate the rates of editing. Output alignments were analyzed for INDEL formation or introduction of specific adenine mutations. Tables 3 through 7 show adenine base editing for each fusion protein comprising nAPG07433.1 and a deaminase from Table 1 and a guide RNA from Table 2. The deaminase component of each fusion protein is indicated. The editing rate for adenines within or proximal to the target sequence is indicated. “A5” indicates, for example, an adenine at position 5 of the target sequence. The position of each nucleotide in the target sequence was determined by numbering the first nucleotide in the target sequence closest to the PAM as position 1, and the position number increases in the […] away from the PAM sequence. The tables also show which nucleotide the adenine was changed to, and at what rate.

APG08196-nAPG07433.1 = APG08196-nAPG07433.1 (synthetic)
Procedure: as §1

APG09102-nAPG07433.1 = APG09102-nAPG07433.1 (synthetic)
Procedure: as §1

APG09949-nAPG07433.1 = APG09949-nAPG07433.1 (synthetic)
Procedure: as §1

APG06333-nAPG07433.1 = APG06333-nAPG07433.1 (synthetic)
Procedure: as §1

APG03724-nAPG07433.1 = APG03724-nAPG07433.1 (synthetic)
Procedure: as §1

APG06489-nAPG07433.1 = APG06489-nAPG07433.1 (synthetic)
Procedure: as §1

APG05723-nAPG07433.1 = APG05723-nAPG07433.1 (synthetic)
Procedure: as §1

APG05174-nAPG07433.1 = APG05174-nAPG07433.1 (synthetic)
Procedure: as §1

APG08449-nAPG07433.1 (synthetic), sequence (chain, as listed by the source): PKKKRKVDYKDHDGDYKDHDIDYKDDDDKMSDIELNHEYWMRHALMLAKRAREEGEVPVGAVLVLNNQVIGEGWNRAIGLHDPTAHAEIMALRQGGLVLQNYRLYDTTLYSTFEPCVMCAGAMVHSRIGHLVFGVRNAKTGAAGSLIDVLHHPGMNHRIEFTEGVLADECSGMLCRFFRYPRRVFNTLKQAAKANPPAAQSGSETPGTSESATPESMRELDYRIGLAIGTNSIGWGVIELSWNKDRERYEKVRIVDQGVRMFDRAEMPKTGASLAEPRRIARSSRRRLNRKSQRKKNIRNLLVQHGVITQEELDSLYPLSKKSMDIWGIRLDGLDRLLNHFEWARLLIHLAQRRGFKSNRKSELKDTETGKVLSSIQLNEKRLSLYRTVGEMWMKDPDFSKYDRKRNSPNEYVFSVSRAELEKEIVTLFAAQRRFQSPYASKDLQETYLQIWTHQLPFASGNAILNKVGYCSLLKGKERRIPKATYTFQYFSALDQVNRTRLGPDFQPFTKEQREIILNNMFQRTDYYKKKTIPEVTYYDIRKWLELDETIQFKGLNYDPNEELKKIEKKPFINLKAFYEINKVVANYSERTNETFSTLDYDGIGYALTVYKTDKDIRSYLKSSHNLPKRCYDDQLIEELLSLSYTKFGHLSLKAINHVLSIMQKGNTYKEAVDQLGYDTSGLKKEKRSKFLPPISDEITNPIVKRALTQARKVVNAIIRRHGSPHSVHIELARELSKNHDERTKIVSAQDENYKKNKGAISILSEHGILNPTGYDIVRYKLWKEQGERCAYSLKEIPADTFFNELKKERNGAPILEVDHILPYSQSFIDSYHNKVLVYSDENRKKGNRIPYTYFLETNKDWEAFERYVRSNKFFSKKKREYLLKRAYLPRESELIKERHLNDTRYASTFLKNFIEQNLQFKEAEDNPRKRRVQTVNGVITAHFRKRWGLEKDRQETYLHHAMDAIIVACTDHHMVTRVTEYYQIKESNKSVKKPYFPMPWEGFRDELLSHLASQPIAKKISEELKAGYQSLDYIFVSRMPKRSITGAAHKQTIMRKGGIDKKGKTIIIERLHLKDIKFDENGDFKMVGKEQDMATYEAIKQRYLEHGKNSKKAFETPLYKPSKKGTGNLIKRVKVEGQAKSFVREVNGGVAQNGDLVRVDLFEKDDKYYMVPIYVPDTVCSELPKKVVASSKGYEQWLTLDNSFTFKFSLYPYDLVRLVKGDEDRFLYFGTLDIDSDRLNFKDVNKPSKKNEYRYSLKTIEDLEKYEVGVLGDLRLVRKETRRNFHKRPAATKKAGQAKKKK
APG05174-nAPG07433.1 (synthetic), sequence (chain, as listed by the source): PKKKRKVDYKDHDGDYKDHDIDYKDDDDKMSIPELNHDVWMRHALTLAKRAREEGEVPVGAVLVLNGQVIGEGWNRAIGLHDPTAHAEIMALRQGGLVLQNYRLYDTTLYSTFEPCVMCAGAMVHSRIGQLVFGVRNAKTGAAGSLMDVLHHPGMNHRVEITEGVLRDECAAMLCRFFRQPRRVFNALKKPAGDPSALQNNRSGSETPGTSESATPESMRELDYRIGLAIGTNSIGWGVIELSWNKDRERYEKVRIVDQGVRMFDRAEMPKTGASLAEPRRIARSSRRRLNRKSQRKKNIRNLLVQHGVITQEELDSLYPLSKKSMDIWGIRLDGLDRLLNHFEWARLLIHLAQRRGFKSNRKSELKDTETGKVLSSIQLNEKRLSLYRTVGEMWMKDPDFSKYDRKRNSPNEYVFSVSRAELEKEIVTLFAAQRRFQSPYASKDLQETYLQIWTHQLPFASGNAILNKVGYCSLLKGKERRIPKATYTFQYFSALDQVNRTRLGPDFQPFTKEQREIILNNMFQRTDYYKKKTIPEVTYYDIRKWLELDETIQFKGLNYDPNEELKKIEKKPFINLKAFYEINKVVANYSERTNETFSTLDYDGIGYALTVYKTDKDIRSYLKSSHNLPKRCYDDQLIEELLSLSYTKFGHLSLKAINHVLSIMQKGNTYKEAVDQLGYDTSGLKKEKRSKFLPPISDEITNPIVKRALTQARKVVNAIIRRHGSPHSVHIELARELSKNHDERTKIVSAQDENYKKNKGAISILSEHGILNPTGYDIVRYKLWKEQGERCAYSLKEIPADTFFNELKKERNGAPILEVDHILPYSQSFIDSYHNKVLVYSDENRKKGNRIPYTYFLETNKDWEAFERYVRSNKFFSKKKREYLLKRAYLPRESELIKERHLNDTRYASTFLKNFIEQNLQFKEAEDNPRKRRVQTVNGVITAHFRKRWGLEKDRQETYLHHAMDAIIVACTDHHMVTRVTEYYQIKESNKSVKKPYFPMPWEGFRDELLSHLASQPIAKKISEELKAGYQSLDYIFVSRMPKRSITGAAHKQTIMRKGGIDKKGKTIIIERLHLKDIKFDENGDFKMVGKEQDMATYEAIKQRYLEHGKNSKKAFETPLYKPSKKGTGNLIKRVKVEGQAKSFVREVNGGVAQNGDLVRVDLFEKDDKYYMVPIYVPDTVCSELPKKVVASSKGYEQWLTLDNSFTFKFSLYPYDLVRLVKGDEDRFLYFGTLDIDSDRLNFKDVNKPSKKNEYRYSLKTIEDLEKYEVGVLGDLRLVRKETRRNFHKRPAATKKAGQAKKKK
APG09102-nAPG07433.1 (synthetic), sequence (chain, as listed by the source): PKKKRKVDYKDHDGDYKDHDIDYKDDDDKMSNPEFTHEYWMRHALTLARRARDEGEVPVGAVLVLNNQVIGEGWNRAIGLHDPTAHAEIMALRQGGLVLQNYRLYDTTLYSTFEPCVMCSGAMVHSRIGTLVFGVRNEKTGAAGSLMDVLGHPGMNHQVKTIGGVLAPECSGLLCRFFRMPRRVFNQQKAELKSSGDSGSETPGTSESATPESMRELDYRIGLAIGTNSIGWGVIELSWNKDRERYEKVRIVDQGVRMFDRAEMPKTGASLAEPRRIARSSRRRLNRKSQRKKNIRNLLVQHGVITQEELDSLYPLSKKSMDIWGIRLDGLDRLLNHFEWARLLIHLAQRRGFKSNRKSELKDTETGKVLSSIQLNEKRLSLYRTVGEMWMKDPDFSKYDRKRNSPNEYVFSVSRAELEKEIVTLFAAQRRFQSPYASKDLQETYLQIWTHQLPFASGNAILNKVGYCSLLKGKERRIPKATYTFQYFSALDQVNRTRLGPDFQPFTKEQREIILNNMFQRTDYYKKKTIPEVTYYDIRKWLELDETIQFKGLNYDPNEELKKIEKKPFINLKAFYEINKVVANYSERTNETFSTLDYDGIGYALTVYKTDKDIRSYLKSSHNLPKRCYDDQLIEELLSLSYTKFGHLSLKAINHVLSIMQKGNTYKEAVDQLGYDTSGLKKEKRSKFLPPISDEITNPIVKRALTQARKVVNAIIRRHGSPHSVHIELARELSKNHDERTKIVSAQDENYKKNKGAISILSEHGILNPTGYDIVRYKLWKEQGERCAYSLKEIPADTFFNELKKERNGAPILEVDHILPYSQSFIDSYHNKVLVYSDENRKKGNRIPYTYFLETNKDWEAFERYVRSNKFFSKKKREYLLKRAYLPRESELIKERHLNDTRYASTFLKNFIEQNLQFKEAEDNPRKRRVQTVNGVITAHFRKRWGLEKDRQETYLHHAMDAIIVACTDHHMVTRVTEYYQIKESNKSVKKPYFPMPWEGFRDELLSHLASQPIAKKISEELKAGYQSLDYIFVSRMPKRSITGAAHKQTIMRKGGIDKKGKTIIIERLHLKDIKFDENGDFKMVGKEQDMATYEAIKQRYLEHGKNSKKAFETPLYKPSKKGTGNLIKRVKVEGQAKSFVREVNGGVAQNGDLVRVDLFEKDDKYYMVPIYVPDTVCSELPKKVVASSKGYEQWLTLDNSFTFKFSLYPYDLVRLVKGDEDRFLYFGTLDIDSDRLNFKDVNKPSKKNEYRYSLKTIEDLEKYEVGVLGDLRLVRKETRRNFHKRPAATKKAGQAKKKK

B1: SGN000186 sgRNA (Table 2) ; SGN000186 target (Table 2) (ssRNA ; dsDNA)
RNA: GGACAGUGCGCAUCUCCCUGGUCAUAGUUCCAUUAAAGCCAAAAGUGGCUUUGAUGUUUCUAUGAUAAGGGUUUCGACCCGUGGCGUCGGGGAUCGCCUGCCCAUUGAAAUGGGCUUCUCCCCAUUUAUU
DNA 1: GGACAGTGCGCATCTCCCTG
DNA 2: CAGGGAGATGCGCACTGTCC
In the case of B1, the activity (APG08449-nAPG07433.1) is reported as 5.3%, the activity (APG08196-nAPG07433.1) is reported as 3.3% and the activity (APG09102-nAPG07433.1) is reported as 6.2%. For the same binder, the activity (APG09949-nAPG07433.1) was 3.4%, the activity (APG06333-nAPG07433.1) was 4.2% and the activity (APG03724-nAPG07433.1) was 4.1%. It also gave an activity (APG06489-nAPG07433.1) of 2.5%, an activity (APG05723-nAPG07433.1) of 1.9% and an activity (APG05174-nAPG07433.1) of 3.2%.

Reference: patent US20220348894, “DNA MODIFYING ENZYMES AND ACTIVE FRAGMENTS AND VARIANTS THEREOF AND METHODS OF USE” (LifeEDIT Therapeutics, Inc., published 2022)
